Here are results for six molecules from patent US20170355766A1 (Xencor, published 2017).

Positions count from the first letter of the chain named. In names and notes the source's numbering stands.

Common to all, as to assay: SPR (Biacore)
One assay has as its target T1, FcγRIIaR (human, UniProt P12318).
T1 construct: recombinant receptor protein with 6xHis and GST tags; also called R131 FcγRIIa
T1 sequence (receptor, looked up): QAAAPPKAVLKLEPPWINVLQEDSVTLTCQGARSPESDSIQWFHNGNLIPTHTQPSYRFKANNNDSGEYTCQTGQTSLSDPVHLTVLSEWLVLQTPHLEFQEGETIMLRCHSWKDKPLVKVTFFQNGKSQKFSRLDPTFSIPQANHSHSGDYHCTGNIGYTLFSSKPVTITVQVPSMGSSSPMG

The target in the next assay is T2, FcγRIIIaF (human, UniProt P08637).
T2 construct: recombinant receptor protein with 6xHis and GST tags; also called F158 FcγRIIIa
T2 sequence (P08637 17-208 limits assumed): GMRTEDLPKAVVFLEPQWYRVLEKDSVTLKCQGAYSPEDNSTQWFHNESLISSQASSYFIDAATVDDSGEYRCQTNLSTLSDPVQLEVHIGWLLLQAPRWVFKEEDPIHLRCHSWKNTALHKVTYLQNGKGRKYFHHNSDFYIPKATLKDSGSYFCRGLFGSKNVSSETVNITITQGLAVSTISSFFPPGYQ

The target of assay [1] is T3, human V158 FcγRIIIa receptor protein (6xHis and GST tags) (human, UniProt P08637 17-208, limits assumed).
T3 construct: also called VIIIa
T3 sequence (P08637 17-208 F176V limits assumed): as the sequence (P08637 17-208 limits assumed) above, with F160V counted along it

The target in assay [2] is T4, human FcγRI receptor protein (R&D Systems) (human, UniProt P12314 16-288).
T4 construct: also called CD64
T4 sequence (P12314 16-288 limits assumed): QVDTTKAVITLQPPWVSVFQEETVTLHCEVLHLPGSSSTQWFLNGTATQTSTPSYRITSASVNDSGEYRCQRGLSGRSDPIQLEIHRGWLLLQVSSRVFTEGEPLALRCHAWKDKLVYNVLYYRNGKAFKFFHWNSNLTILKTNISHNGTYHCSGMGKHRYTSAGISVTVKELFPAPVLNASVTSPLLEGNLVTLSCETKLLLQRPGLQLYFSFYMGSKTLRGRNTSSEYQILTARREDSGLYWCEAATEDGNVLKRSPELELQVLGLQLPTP

In assay [3] the target is T5, human H131 FcγRIIa receptor protein (6xHis and GST tags) (human, UniProt P12318 34-217, limits assumed).
T5 construct: also called HIIa
T5 sequence (looked up): T1 sequence (receptor, looked up) with R134H

The target in assay [4] is T6, human FcγRIIb receptor protein (R&D Systems) (human, UniProt P31994 46-217).
T6 construct: Analyte injected over antibodies captured on a protein A/G chip (Biacore); also called CD32b
T6 sequence (looked up): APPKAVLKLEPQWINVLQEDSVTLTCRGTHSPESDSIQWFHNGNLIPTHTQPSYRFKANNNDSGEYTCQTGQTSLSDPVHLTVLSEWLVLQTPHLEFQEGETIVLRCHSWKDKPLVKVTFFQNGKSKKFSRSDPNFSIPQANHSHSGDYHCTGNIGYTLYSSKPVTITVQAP

B1: G236D (antibody, human IgG1, kappa)
heavy: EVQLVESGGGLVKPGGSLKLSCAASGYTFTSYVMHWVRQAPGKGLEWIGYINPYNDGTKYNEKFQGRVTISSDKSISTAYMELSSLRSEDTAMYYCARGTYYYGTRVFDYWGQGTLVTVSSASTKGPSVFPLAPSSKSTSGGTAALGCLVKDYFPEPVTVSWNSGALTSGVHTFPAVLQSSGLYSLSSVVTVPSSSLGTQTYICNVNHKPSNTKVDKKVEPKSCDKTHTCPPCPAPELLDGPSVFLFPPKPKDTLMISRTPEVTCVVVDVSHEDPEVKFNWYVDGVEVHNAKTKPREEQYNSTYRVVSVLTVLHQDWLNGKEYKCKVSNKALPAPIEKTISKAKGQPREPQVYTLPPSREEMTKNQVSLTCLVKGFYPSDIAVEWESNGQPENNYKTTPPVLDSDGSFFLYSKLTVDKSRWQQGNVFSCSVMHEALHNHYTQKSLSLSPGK
light: DIVMTQSPATLSLSPGERATLSCRSSKSLQNVNGNTYLYWFQQKPGQSPQLLIYRMSNLNSGVPDRFSGSGSGTEFTLTISSLEPEDFAVYYCMQHLEYPITFGAGTKLEIKRTVAAPSVFIFPPSDEQLKSGTASVVCLLNNFYPREAKVQWKVDNALQSGNSQESVTEQDSKDSTYSLSSTLTLSKADYEKHKVYACEVTHQGLSSPVTKSFNRGEC
notes: HuAM4G7 IgG1 Fc variant
For B1, the “Fold FcγRIIaR” value with FcγRIIaR was determined as 0.758 fold. The binding result (with FcγRIIIaF; in assay [1]) was “no binding” throughout. The “Fold FcγRI” value in assay [2] is 0.0211 fold. In assay [3], the “Fold FcγRIIaH” value is 0.167 fold. Moreover, in assay [4], the “Fold FcγRIIb” value turned out to be 1.54 fold.

B2: L235Y/S267E/H268E (antibody, human IgG1, kappa)
heavy: EVQLVESGGGLVKPGGSLKLSCAASGYTFTSYVMHWVRQAPGKGLEWIGYINPYNDGTKYNEKFQGRVTISSDKSISTAYMELSSLRSEDTAMYYCARGTYYYGTRVFDYWGQGTLVTVSSASTKGPSVFPLAPSSKSTSGGTAALGCLVKDYFPEPVTVSWNSGALTSGVHTFPAVLQSSGLYSLSSVVTVPSSSLGTQTYICNVNHKPSNTKVDKKVEPKSCDKTHTCPPCPAPELYGGPSVFLFPPKPKDTLMISRTPEVTCVVVDVEEEDPEVKFNWYVDGVEVHNAKTKPREEQYNSTYRVVSVLTVLHQDWLNGKEYKCKVSNKALPAPIEKTISKAKGQPREPQVYTLPPSREEMTKNQVSLTCLVKGFYPSDIAVEWESNGQPENNYKTTPPVLDSDGSFFLYSKLTVDKSRWQQGNVFSCSVMHEALHNHYTQKSLSLSPGK
light: B1 light
notes: HuAM4G7 IgG1 Fc variant
For B2, in the assay with FcγRIIaR, the “Fold FcγRIIaR” value was found to be 48.2 fold. Further, the “Fold FcγRIIIaV” value in assay [1] is 0.428 fold. In addition, the “Fold FcγRI” value in assay [2] worked out at 0.0103 fold. In assay [3], the “Fold FcγRIIaH” value amounted to 0.157 fold. Besides, the “Fold FcγRIIb” value in assay [4] was 69.9 fold.

B3: L235Y/S267E/L328F (antibody, human IgG1, kappa)
heavy: B2 heavy with E272H, L332F
light: B1 light
notes: HuAM4G7 IgG1 Fc variant
For B3, in the assay with FcγRIIaR, the “Fold FcγRIIaR” value was determined as 171 fold. Further, the binding result in assay [1] was “no binding”. Also, the “Fold FcγRI” value in assay [2] worked out at 0.00436 fold. The “Fold FcγRIIaH” value in assay [3] amounted to 0.758 fold. Besides, the “Fold FcγRIIb” value in assay [4] is 187 fold.

B4: L235Y/S239D/S267E (antibody, human IgG1, kappa)
heavy: B2 heavy with S243D, E272H
light: B1 light
notes: HuAM4G7 IgG1 Fc variant
Turning to B4, in the assay with FcγRIIaR, the “Fold FcγRIIaR” value was determined as 98.9 fold. Moreover, the “Fold FcγRIIIaV” value in assay [1] worked out at 2.6 fold. Moreover, the “Fold FcγRI” value in assay [2] turned out to be 1.07 fold. In addition, the “Fold FcγRIIaH” value in assay [3] turned out to be 1.05 fold. Also, the “Fold FcγRIIb” value in assay [4] is 116 fold.

B5: S239D (antibody, human IgG1, kappa)
heavy: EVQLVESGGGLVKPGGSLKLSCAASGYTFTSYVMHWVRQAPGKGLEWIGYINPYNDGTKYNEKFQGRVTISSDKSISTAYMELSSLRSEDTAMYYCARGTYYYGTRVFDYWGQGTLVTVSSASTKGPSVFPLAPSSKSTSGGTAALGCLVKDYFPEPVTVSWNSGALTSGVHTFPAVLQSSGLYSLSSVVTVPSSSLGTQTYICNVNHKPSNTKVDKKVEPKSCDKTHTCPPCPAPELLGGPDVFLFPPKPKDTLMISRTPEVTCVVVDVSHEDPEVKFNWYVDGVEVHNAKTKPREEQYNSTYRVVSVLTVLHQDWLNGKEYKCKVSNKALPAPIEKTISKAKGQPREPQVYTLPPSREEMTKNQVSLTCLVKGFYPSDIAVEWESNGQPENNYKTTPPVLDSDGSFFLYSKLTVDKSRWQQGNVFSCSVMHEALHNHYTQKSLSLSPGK
light: B1 light
notes: HuAM4G7 IgG1 Fc variant
For B5, in the assay with FcγRIIaR, the “Fold FcγRIIaR” value stood at 3.73 fold. Besides, the “Fold FcγRIIIaF” value with FcγRIIIaF turned out to be 6.32 fold. For the same molecule, in assay [1], the “Fold FcγRIIIaV” value is 8.14 fold. In assay [2], the “Fold FcγRI” value turned out to be 3.53 fold. Besides, in assay [3], the “Fold FcγRIIaH” value amounted to 1.1 fold. Also, the “Fold FcγRIIb” value in assay [4] is 3.6 fold.

B6: G236R/L328R (antibody, human IgG1, kappa)
heavy: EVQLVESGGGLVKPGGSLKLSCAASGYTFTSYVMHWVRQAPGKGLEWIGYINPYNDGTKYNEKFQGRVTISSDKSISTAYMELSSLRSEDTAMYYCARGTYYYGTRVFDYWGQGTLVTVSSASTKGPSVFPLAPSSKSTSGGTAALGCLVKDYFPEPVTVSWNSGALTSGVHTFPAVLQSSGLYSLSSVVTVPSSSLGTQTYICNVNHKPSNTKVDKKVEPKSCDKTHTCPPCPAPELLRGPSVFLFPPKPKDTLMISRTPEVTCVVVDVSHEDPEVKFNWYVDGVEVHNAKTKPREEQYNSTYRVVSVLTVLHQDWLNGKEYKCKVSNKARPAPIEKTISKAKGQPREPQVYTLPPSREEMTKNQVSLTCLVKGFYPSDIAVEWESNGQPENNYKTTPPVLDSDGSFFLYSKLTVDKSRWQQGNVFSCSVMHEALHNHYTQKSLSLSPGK
light: B1 light
notes: HuAM4G7 IgG1 Fc variant; also called Fc-KO; FcγR knockout
Turning to B6, the binding result (with FcγRIIaR; in the assay with FcγRIIIaF; in assay [1]; in assay [2]; in assay [3]; in assay [4]) was “no binding” in each case.
